Target: the molecule itself
Assay: two-step photobleaching of single molecules

B1: GFP-tagged MCAK containing aa 187-730 (GMΔNT) (domain or fragment, UniProt Q91636 187-730, looked up)
chain: GRNNQGRRKSNIVKEMEKMKNKREEQRAQNYERRMKRAQDYDTSVPNWEFGKMIKEFRATMDCHRISMADPAEEHRICVCVRKRPLNKQELSKKEIDIISVPSKNIVLVHEPKLKVDLTKYLENQAFRFDFSFDETATNEVVYRFTARPLVQSIFEGGKATCFAYGQTGSGKTHTMGGDFSGKSQNVSKGVYAFASRDVFLLLDQPRYKHLDLDVFVTFFEIYNGKVFDLLNKKTKLRVLEDAKQEVQVVGLLEKQVISADDVFKMIEIGSACRTSGQTFANTSSSRSHACLQIILRRGSKLHGKFSLVDLAGNERGVDTASADRITRMEGAEINRSLLALKECIRALGQNKSHTPFRESKLTQILRDSFIGENSRTCMIAMLSPGFNSCEYTLNTLRYADRVKELSPQNAETNDDNLQMEDSGGSHASIEGLQLQDDFLLKDEELSTHNSFQDALNRVGELEDKAVDELRELVQKEPEWTNLLQMTEQPDYDLENFVMQAEYLIQERSKVLIALGDSINSLRLALQVEEQASKQISKKKRSNK
B1 was tested, and the “stoichiometry N” value was 2.

Source: paper PMC3897551 (Current biology : CB, 2013)
